Data on 2 molecules can be found in PMC12095920.

For experiment [1], the target named is tau^4R construct (four microtubule-binding repeat domains of human tau) (human) (UniProt P10636).
The target in experiment [2] is tau^4R construct (four microtubule-binding repeat domains of human tau) (human), P10636.
Chain of tau^4R construct (four microtubule-binding repeat domains of human tau) (human), P10636 (P10636 561-689): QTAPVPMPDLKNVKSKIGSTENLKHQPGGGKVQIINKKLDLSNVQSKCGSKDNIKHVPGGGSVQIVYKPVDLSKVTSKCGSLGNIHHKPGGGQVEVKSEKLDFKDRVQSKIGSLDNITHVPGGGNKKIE

Turning to “apical domain of human CCT3 (from UniProt P49368 223-383) (domain or fragment)”, in experiment [1], the ThT fluorescence after 23 h in the presence of apiCCT3, relative to tau^4R alone (not shown) stood at 2.5%.

B1: apical domain of human CCT7, Q99832 207-376 (domain or fragment)
chain: DSQLVAGVAFKKTFSYAGFEMQPKKYHNPKIALLNVELELKAEKDNAEIRVHTVEDYQAIVDAEWNILYDKLEKIHHSGAKVVLSKLPIGDVATQYFADRDMFCAGRVPEEDLKRTMMACGGSIQTSVNALSADVLGRCQVFEETQIGGERYNFFTGCPKAKTCTFILRG
With B1, the ThT fluorescence after 23 h in the presence of apiCCT7, relative to tau^4R alone in experiment [2] was 30%.
